Values quoted from earlier work in PMC4407497.

How the values were obtained:
IL-22BP (Homo sapiens) = IL-22BP (Homo sapiens) (UniProt Q969J5)
IL-22R1 (Homo sapiens) = IL-22R1 (Homo sapiens) (UniProt Q8N6P7)
UniProt Q8N6P7, sequence (Q8N6P7 16-228): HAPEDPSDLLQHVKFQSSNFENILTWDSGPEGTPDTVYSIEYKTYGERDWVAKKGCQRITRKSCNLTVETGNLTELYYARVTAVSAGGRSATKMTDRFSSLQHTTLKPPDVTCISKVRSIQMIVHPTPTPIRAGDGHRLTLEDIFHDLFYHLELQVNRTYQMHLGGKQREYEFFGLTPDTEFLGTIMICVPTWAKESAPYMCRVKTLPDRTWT

UniProt Q969J5, sequence (Q969J5 22-263): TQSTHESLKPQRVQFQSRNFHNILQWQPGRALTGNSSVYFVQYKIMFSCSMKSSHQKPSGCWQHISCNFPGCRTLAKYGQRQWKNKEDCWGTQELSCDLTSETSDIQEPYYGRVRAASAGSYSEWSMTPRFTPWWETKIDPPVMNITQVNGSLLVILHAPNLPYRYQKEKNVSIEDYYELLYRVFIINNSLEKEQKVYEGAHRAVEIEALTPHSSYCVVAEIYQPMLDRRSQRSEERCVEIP

Substance: IL-22 (from UniProt Q9GZX6)
- Kd (IL-22BP (Homo sapiens)): 0.001 nM
- Kd (IL-22R1 (Homo sapiens)): 20 nM
